The source of these data is the RNAGym collection of RNA variant scans (doi:10.1021/acssynbio.7b00057).

The labels stand for the following.
B1: Pistol ribozyme (parent)
chain: GGGUCGUUGUUCCAUAAUCGCGUGGAUAUGGCACGCAAGUUUCUACCGGGCACCGUAAAUGUCCGACUGGAGCCGUUCGGGCGGCUAUAAACAGACCUCAGGCCCGAAGCGUGGCGGCACCUGCCGCCGGUGGUAAAAAAGAUCGGAAGAGCACACGUCU

Variants of B1 are the subject of the series. Briefly: aptazyme ON/OFF ratio, guanine; higher = stronger switching; co-transcriptional cleavage with and without guanine.
Regarding U7G G9U U11C C12U C13U, the “aptazyme ON/OFF ratio” value turned out to be 1.31.

Take U7G G9U U11C C12U C13A: the “aptazyme ON/OFF ratio” value turned out to be 1.37.

Take U7G G9U U11C C12U C13G: the “aptazyme ON/OFF ratio” value worked out at 1.3.

Regarding U7G G9C U11C C12U, the “aptazyme ON/OFF ratio” value is 2.15.

On to U7G G9U U10C U11A C13U, for which the “aptazyme ON/OFF ratio” value is 1.36.

As to U7G G9U U10C U11A C13G, the “aptazyme ON/OFF ratio” value amounted to 1.16.

Take U7G G9U U10C U11A C13A: the “aptazyme ON/OFF ratio” value was found to be 1.34.

For the variant U7G G9U U10C U11C C12G, the “aptazyme ON/OFF ratio” value was 1.23.

On to U7G G9U U10C U11C C12A, for which the “aptazyme ON/OFF ratio” value worked out at 1.37.

Regarding U7G G9U U10C U11C C12U, the “aptazyme ON/OFF ratio” value was found to be 1.41.

For the variant U7G G9U U10A U11C C12G C13U, the “aptazyme ON/OFF ratio” value is 1.27.

With U7G G9U U10A U11C C12G C13A, the “aptazyme ON/OFF ratio” value worked out at 1.22.

Take U7G G9U U10A U11C C12G C13G: the “aptazyme ON/OFF ratio” value worked out at 1.04.

As for U7G G9U U10C C13U, the “aptazyme ON/OFF ratio” value was 1.66.

For the variant U7G G9U U10C C13G, the “aptazyme ON/OFF ratio” value was 1.1.

Turning to U7G G9U U10C C13A, the “aptazyme ON/OFF ratio” value was 1.37.

For U7G G9U U10G C12G C13U, the “aptazyme ON/OFF ratio” value is 1.4.

On to U7G G9U U10G C12G C13A, for which the “aptazyme ON/OFF ratio” value was 1.15.

On to U7G G9U U10G C12G C13G, for which the “aptazyme ON/OFF ratio” value came to 1.2.

Take U7G G9U U11A C13U: the “aptazyme ON/OFF ratio” value is 1.27.

U7G G9U U11A C13G: the “aptazyme ON/OFF ratio” value worked out at 1.13.

Consider U7G G9U U11A C13A, for which the “aptazyme ON/OFF ratio” value came out at 1.34.

As to U7G G9U U10A U11A C12A, the “aptazyme ON/OFF ratio” value is 1.3.

In the case of U7G G9U U10A U11A C12G, the “aptazyme ON/OFF ratio” value stood at 1.41.

U7G G9U U10A U11A C12U: the “aptazyme ON/OFF ratio” value came out at 1.54.

Regarding U7G G9U C12U C13A, the “aptazyme ON/OFF ratio” value amounted to 1.28.

In the case of U7G G9U C12U C13U, the “aptazyme ON/OFF ratio” value is 1.18.

For U7G G9U C12U C13G, the “aptazyme ON/OFF ratio” value came out at 1.31.

In the case of U7G G9U U11A C12U C13U, the “aptazyme ON/OFF ratio” value came out at 1.07.

Consider U7G G9U U11A C12U C13A, for which the “aptazyme ON/OFF ratio” value was 1.25.

Take U7G G9U U11A C12U C13G: the “aptazyme ON/OFF ratio” value came out at 1.27.

As to U7G G9U U10A C13G, the “aptazyme ON/OFF ratio” value stood at 1.18.

Take U7G G9U U10A C13U: the “aptazyme ON/OFF ratio” value is 1.35.

For the variant U7G G9U U10A C13A, the “aptazyme ON/OFF ratio” value is 1.44.

Regarding U7G U8A G9A C13G, the “aptazyme ON/OFF ratio” value worked out at 1.09.

U7G U8A G9A C13A: the “aptazyme ON/OFF ratio” value was 1.25.

In the case of U7G U8A G9A C13U, the “aptazyme ON/OFF ratio” value came out at 1.23.

As to U7G G9U U11A C12A C13U, the “aptazyme ON/OFF ratio” value worked out at 1.43.

As to U7G G9U U11A C12A C13G, the “aptazyme ON/OFF ratio” value turned out to be 1.23.

In the case of U7G G9U U11A C12A C13A, the “aptazyme ON/OFF ratio” value is 1.3.

Take U7G G9U U11C C12G C13G: the “aptazyme ON/OFF ratio” value was determined as 1.26.

Turning to U7G G9U U11C C12G C13A, the “aptazyme ON/OFF ratio” value was 1.22.

As for U7G G9U U11C C12G C13U, the “aptazyme ON/OFF ratio” value worked out at 1.37.

Take U7G G9C U11G C12G C13G: the “aptazyme ON/OFF ratio” value is 1.36.

Take U7G G9C U11G C12G C13A: the “aptazyme ON/OFF ratio” value came to 1.17.

As for U7G G9C U11G C12G C13U, the “aptazyme ON/OFF ratio” value was determined as 1.29.

For U7G U8A G9A C12A C13G, the “aptazyme ON/OFF ratio” value was 1.11.

With U7G U8A G9A C12A C13A, the “aptazyme ON/OFF ratio” value came out at 1.25.

With U7G U8A G9A C12A C13U, the “aptazyme ON/OFF ratio” value came to 1.1.

With U7G G9U U10G C12U, the “aptazyme ON/OFF ratio” value stood at 1.55.

For the variant U7G G9U U10G C12G, the “aptazyme ON/OFF ratio” value is 1.36.

As to U7G G9U U10G C12A, the “aptazyme ON/OFF ratio” value is 1.7.

As for U7G G9C U11G C12U C13G, the “aptazyme ON/OFF ratio” value is 1.27.

Consider U7G G9C U11G C12U C13U, for which the “aptazyme ON/OFF ratio” value worked out at 1.2.

Take U7G G9C U11G C12U C13A: the “aptazyme ON/OFF ratio” value is 1.43.

In the case of U7G U8A C12G C13G, the “aptazyme ON/OFF ratio” value is 1.17.

On to U7G U8A C12G C13U, for which the “aptazyme ON/OFF ratio” value turned out to be 1.46.

On to U7G U8A C12G C13A, for which the “aptazyme ON/OFF ratio” value came to 1.51.

On to U7G G9U U11C C12A C13A, for which the “aptazyme ON/OFF ratio” value amounted to 1.42.

Consider U7G G9U U11C C12A C13G, for which the “aptazyme ON/OFF ratio” value was found to be 1.28.

As for U7G G9U U11C C12A C13U, the “aptazyme ON/OFF ratio” value came to 1.41.

Turning to U7G G9U U10C C12A, the “aptazyme ON/OFF ratio” value turned out to be 2.03.

In the case of U7G G9U U10C C12G, the “aptazyme ON/OFF ratio” value came out at 1.37.

On to U7G G9U U10C C12U, for which the “aptazyme ON/OFF ratio” value was found to be 1.51.

On to U7G G9U U10G U11C, for which the “aptazyme ON/OFF ratio” value was 1.13.

As for U7G G9U U10G U11A, the “aptazyme ON/OFF ratio” value came out at 1.23.

Regarding U7G G9U U10G U11G, the “aptazyme ON/OFF ratio” value was determined as 1.74.

In the case of U7G G9U U10G U11C C12A C13G, the “aptazyme ON/OFF ratio” value came to 1.23.

Turning to U7G G9U U10G U11C C12A C13U, the “aptazyme ON/OFF ratio” value stood at 1.33.

For U7G G9U U10G U11C C12A C13A, the “aptazyme ON/OFF ratio” value amounted to 1.14.

For U7G G9U C13A, the “aptazyme ON/OFF ratio” value came out at 1.38.

As for U7G G9U C13G, the “aptazyme ON/OFF ratio” value came to 1.2.

Turning to U7G G9U C13U, the “aptazyme ON/OFF ratio” value came out at 1.45.

As for U7G G9U U10C U11C C13G, the “aptazyme ON/OFF ratio” value worked out at 1.07.

On to U7G G9U U10C U11C C13U, for which the “aptazyme ON/OFF ratio” value was 1.09.

Regarding U7G G9U U10C U11C C13A, the “aptazyme ON/OFF ratio” value is 1.05.

Take U7G G9U U10C C12G C13U: the “aptazyme ON/OFF ratio” value was 1.29.

As for U7G G9U U10C C12G C13A, the “aptazyme ON/OFF ratio” value turned out to be 1.27.

With U7G G9U U10C C12G C13G, the “aptazyme ON/OFF ratio” value was 1.22.

In the case of U7G U8A, the “aptazyme ON/OFF ratio” value worked out at 1.54.

Take U7G G9U U10G U11A C12U C13G: the “aptazyme ON/OFF ratio” value was found to be 1.17.

Take U7G G9U U10G U11A C12U C13U: the “aptazyme ON/OFF ratio” value was determined as 1.23.

Turning to U7G G9U U10G U11A C12U C13A, the “aptazyme ON/OFF ratio” value worked out at 1.17.

As for U7G G9U U10A U11G C12A C13U, the “aptazyme ON/OFF ratio” value worked out at 1.12.
